From publication PMC2569942 come the findings set out here.

In general, stoichiometry N refers to a count of units in the complex or per binding partner.

The test has as its target prophagic Cu,Zn superoxide dismutase SodC-F1 of E. coli O157:H7 (soluble recombinant mature enzyme from pO157-ΔCys) (E. coli O157:H7 EDL933). Briefly: SEC. (In gel filtration, larger molecules generally elute earlier.)

In the case of “prophagic Cu,Zn superoxide dismutase SodC-F1 of E. coli O157:H7 (soluble recombinant mature enzyme from pO157-ΔCys)”, the stoichiometry N worked out at 2.
